From patent US20220204996A1 come the findings set out here.

The target in assay [1] is PSI purified from WT^H6 (Chlamydomonas reinhardtii) (UniProt P12154). Nature of the assay: cell-based or functional assay.
Assay [2] has as its target PSI-HydA complex of the ΨH1 strain (hydA1-1 hydA2-1 [psaC-hydA2]) (Chlamydomonas reinhardtii) (UniProt P12154). Nature of the assay: cell-based or functional assay.
Assay [3] has as its target PSI-HydA complex purified from ΨH1^H6 (Chlamydomonas reinhardtii) (UniProt P12154). Nature of the assay: cell-based or functional assay.
Assay [4] addresses PSI-HydA complex of the ΨH1 strain (hydA1-1 hydA2-1 [psaC-hydA2]) (Chlamydomonas reinhardtii) (UniProt P12154). Nature of the assay: cell-based or functional assay. This is another data set of the same source.
Substrate in assay [5]: PSI purified from the hydA strain (hydA1-1 hydA2-1) (Chlamydomonas reinhardtii) (UniProt P12154)
Nature of the assay: cell-based or functional assay.

The target of assay [6] is PSI-HydA complex purified from ΨH1^H6 (Chlamydomonas reinhardtii) (UniProt P12154). Nature of the assay: immunoblot of isolated PSI particles loaded on equal P700.

For “ferredoxin (Fd) (from UniProt P07839 33-126)”, the NADP+ photoreduction rate (coupled assay with Fd and FNR) (NADPH s^-1 per PSI) in assay [1] stood at 1.57; in assay [3] it was 0.77. The molecule further came in with a rate of H2 production in the dark (GC-TCD, ΨH1 culture) (nmol H2 h^-1 (mg Chl)^-1) in assay [2] of 330. The molecule further registered an ability of PSI-HydA to reduce algal Fd (in a coupled assay) in assay [3] of 50%.

B1: Recombinant Synechococcus sp. PCC7002 flavodoxin (protein, UniProt P31158 2-170, looked up)
chain: SKIGLFFGTQTGNTEELAQAIQAAFGGSDIVELFDVAEVDIEALRDFDQLIIGCPTWNVGELQSDWEALYDDLDDVDFSGKTIAYFGAGDQVGYADNFQDAMGVLEEKITSLGGKTVGQWPTAGYDHSESKAERDGKFVGLAIDEDNQPELTAERIQAWVAQLKPAFGL
In assay [4], B1 came in with a Flavodoxin photoreduction turnover rate of 0.088 s⁻¹ and a light-driven reduction of cyanobacterial flavodoxin, drop against PSI of 9 fold. The Flavodoxin photoreduction turnover rate in assay [5] is 0.77 s⁻¹.

B2: PsaD (protein, Chlamydomonas reinhardtii, UniProt Q39615 36-196, looked up)
chain: EAEAAPAAAKKAAEKPAWTVPTLNPDTPSPIFGGSTGGLLRKAQTEEFYVITWEAKKEQIFEMPTGGAAIMRQGPNLLKFGKKEQCLALTTQLRNKFKLTPCFYRVFPDGKVQYLHPADGVYPEKVNAGRVGANQNMRRIGQNVNPIKVKFSGRMMSPAEI
Regarding B2, in assay [6], the ratio of anti-PsaD cross-reactive bands (PSI : PSI-HydA) (ratio to WT PSI) is 1.02.
